B1: Protein DBF4 homolog A (Homo sapiens), Q9UBU7 (parent)
chain: MNSGAMRIHSKGHFQGGIQVKNEKNRPSLKSLKTDNRPEKSKCKPLWGKVFYLDLPSVTISEKLQKDIKDLGGRVEEFLSKDISYLISNKKEAKFAQTLGRISPVPSPESAYTAETTSPHPSHDGSSFKSPDTVCLSRGKLLVEKAIKDHDFIPSNSILSNALSWGVKILHIDDIRYYIEQKKKELYLLKKSSTSVRDGGKRVGSGAQKTRTGRLKKPFVKVEDMSQLYRPFYLQLTNMPFINYSIQKPCSPFDVDKPSSMQKQTQVKLRIQTDGDKYGGTSIQLQLKEKKKKGYCECCLQKYEDLETHLLSEQHRNFAQSNQYQVVDDIVSKLVFDFVEYEKDTPKKKRIKYSVGSLSPVSASVLKKTEQKEKVELQHISQKDCQEDDTTVKEQNFLYKETQETEKKLLFISEPIPHPSNELRGLNEKMSNKCSMLSTAEDDIRQNFTQLPLHKNKQECILDISEHTLSENDLEELRVDHYKCNIQASVHVSDFSTDNSGSQPKQKSDTVLFPAKDLKEKDLHSIFTHDSGLITINSSQEHLTVQAKAPFHTPPEEPNECDFKNMDSLPSGKIHRKVKIILGRNRKENLEPNAEFDKRTEFITQEENRICSSPVQSLLDLFQTSEEKSEFLGFTSYTEKSGICNVLDIWEEENSDNLLTAFFSSPSTSTFTGF
B2: Syntenin-2 (Homo sapiens), Q9H190 (parent)
chain: MSSLYPSLEDLKVDQAIQAQVRASPKMPALPVQATAISPPPVLYPNLAELENYMGLSLSSQEVQESLLQIPEGDSTAVSGPGPGQMVAPVTGYSLGVRRAEIKPGVREIHLCKDERGKTGLRLRKVDQGLFVQLVQANTPASLVGLRFGDQLLQIDGRDCAGWSSHKAHQVVKKASGDKIVVVVRDRPFQRTVTMHKDSMGHVGFVIKKGKIVSLVKGSSAARNGLLTNHYVCEVDGQNVIGLKDKKIMEILATAGNVVTLTIIPSVIYEHMVKKLPPVLLHHTMDHSIPDA
partner: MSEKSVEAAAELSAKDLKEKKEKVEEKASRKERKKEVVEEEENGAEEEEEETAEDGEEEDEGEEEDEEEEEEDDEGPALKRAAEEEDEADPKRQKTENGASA
B3: Protein unc-50 homolog (Homo sapiens), Q53HI1 (parent)
chain: MLPSTSVNSLVQGNGVLNSRDAARHTAGAKRYKYLRRLFRFRQMDFEFAAWQMLYLFTSPQRVYRNFHYRKQTKDQWARDDPAFLVLLSIWLCVSTIGFGFVLDMGFFETIKLLLWVVLIDCVGVGLLIATLMWFISNKYLVKRQSRDYDVEWGYAFDVHLNAFYPLLVILHFIQLFFINHVILTDTFIGYLVGNTLWLVAVGYYIYVTFLGYSALPFLKNTVILLYPFAPLILLYGLSLALGWNFTHTLCSFYKYRVK
partner: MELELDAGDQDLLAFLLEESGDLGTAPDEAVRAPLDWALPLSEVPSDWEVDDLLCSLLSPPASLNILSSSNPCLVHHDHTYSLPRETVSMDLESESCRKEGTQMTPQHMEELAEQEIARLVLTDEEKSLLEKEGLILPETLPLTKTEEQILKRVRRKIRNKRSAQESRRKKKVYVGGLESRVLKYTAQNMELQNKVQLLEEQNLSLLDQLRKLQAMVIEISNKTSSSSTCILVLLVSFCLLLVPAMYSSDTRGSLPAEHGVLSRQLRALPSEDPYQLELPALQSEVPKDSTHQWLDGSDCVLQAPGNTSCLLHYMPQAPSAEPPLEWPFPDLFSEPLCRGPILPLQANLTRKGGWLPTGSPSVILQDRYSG
B4: Alpha-taxilin (Homo sapiens), P40222 (parent)
chain: MKNQDKKNGAAKQSNPKSSPGQPEAGPEGAQERPSQAAPAVEAEGPGSSQAPRKPEGAQARTAQSGALRDVSEELSRQLEDILSTYCVDNNQGGPGEDGAQGEPAEPEDAEKSRTYVARNGEPEPTPVVNGEKEPSKGDPNTEEIRQSDEVGDRDHRRPQEKKKAKGLGKEITLLMQTLNTLSTPEEKLAALCKKYAELLEEHRNSQKQMKLLQKKQSQLVQEKDHLRGEHSKAVLARSKLESLCRELQRHNRSLKEEGVQRAREEEEKRKEVTSHFQVTLNDIQLQMEQHNERNSKLRQENMELAERLKKLIEQYELREEHIDKVFKHKDLQQQLVDAKLQQAQEMLKEAEERHQREKDFLLKEAVESQRMCELMKQQETHLKQQLALYTEKFEEFQNTLSKSSEVFTTFKQEMEKMTKKIKKLEKETTMYRSRWESSNKALLEMAEEKTVRDKELEGLQVKIQRLEKLCRALQTERNDLNKRVQDLSAGGQGSLTDSGPERRPEGPGAQAPSSPRVTEAPCYPGAPSTEASGQTGPQEPTSARA
partner: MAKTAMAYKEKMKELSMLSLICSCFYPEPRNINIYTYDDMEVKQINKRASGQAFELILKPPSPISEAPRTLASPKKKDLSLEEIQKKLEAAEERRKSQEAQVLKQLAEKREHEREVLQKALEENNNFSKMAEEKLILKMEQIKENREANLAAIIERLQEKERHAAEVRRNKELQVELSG
B5: Keratin, type II cytoskeletal 2 epidermal (Homo sapiens), P35908 (parent)
chain: MSCQISCKSRGRGGGGGGFRGFSSGSAVVSGGSRRSTSSFSCLSRHGGGGGGFGGGGFGSRSLVGLGGTKSISISVAGGGGGFGAAGGFGGRGGGFGGGSSFGGGSGFSGGGFGGGGFGGGRFGGFGGPGGVGGLGGPGGFGPGGYPGGIHEVSVNQSLLQPLNVKVDPEIQNVKAQEREQIKTLNNKFASFIDKVRFLEQQNQVLQTKWELLQQMNVGTRPINLEPIFQGYIDSLKRYLDGLTAERTSQNSELNNMQDLVEDYKKKYEDEINKRTAAENDFVTLKKDVDNAYMIKVELQSKVDLLNQEIEFLKVLYDAEISQIHQSVTDTNVILSMDNSRNLDLDSIIAEVKAQYEEIAQRSKEEAEALYHSKYEELQVTVGRHGDSLKEIKIEISELNRVIQRLQGEIAHVKKQCKNVQDAIADAEQRGEHALKDARNKLNDLEEALQQAKEDLARLLRDYQELMNVKLALDVEIATYRKLLEGEECRMSGDLSSNVTVSVTSSTISSNVASKAAFGGSGGRGSSSGGGYSSGSSSYGSGGRQSGSRGGSGGGGSISGGGYGSGGGSGGRYGSGGGSKGGSISGGGYGSGGGKHSSGGGSRGGSSSGGGYGSGGGGSSSVKGSSGEAFGSSVTFSFR
partner: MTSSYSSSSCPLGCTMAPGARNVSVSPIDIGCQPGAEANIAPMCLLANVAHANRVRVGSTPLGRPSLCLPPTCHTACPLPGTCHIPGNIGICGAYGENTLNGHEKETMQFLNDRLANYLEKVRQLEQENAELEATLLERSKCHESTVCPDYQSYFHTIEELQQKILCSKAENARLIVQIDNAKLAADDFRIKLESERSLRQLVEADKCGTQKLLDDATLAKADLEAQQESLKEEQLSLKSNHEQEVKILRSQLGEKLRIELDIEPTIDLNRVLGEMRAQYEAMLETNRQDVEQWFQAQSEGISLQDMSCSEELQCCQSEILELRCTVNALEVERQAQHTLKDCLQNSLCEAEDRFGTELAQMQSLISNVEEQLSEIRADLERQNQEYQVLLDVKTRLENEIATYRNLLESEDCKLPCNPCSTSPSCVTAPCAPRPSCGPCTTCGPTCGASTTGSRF
B6: Transmembrane 4 L6 family member 4 (Homo sapiens), P48230 (parent)
chain: MCTGGCARCLGGTLIPLAFFGFLANILLFFPGGKVIDDNDHLSQEIWFFGGILGSGVLMIFPALVFLGLKNNDCCGCCGNEGCGKRFAMFTSTIFAVVGFLGAGYSFIISAISINKGPKCLMANSTWGYPFHDGDYLNDEALWNKCREPLNVVPWNLTLFSILLVVGGIQMVLCAIQVVNGLLGTLCGDCQCCGCCGGDGPV
partner: B3 partner
B7: Tuftelin-interacting protein 11 (Homo sapiens), Q9UBB9 (parent)
chain: MSLSHLYRDGEGRIDDDDDERENFEITDWDLQNEFNPNRQRHWQTKEEATYGVWAERDSDDERPSFGGKRARDYSAPVNFISAGLKKGAAEEAELEDSDDEEKPVKQDDFPKDFGPRKLKTGGNFKPSQKGFAGGTKSFMDFGSWERHTKGIGQKLLQKMGYVPGRGLGKNAQGIINPIEAKQRKGKGAVGAYGSERTTQSMQDFPVVDSEEEAEEEFQKELSQWRKDPSGSKKKPKYSYKTVEELKAKGRISKKLTAPQKELSQVKVIDMTGREQKVYYSYSQISHKHNVPDDGLPLQSQQLPQSGKEAKAPGFALPELEHNLQLLIDLTEQEIIQNDRQLQYERDMVVNLFHELEKMTEVLDHEERVISNLSKVLEMVEECERRMQPDCSNPLTLDECARIFETLQDKYYEEYRMSDRVDLAVAIVYPLMKEYFKEWDPLKDCTYGTEIISKWKSLLENDQLLSHGGQDLSADAFHRLIWEVWMPFVRNIVTQWQPRNCDPMVDFLDSWVHIIPVWILDNILDQLIFPKLQKEVENWNPLTDTVPIHSWIHPWLPLMQARLEPLYSPIRSKLSSALQKWHPSDSSAKLILQPWKDVFTPGSWEAFMVKNIVPKLGMCLGELVINPHQQHMDAFYWVIDWEGMISVSSLVGLLEKHFFPKWLQVLCSWLSNSPNYEEITKWYLGWKSMFSDQVLAHPSVKDKFNEALDIMNRAVSSNVGAYMQPGARENIAYLTHTERRKDFQYEAMQERREAENMAQRGIGVAASSVPMNFKDLIETKAEEHNIVFMPVIGKRHEGKQLYTFGRIVIYIDRGVVFVQGEKTWVPTSLQSLIDMAK
partner: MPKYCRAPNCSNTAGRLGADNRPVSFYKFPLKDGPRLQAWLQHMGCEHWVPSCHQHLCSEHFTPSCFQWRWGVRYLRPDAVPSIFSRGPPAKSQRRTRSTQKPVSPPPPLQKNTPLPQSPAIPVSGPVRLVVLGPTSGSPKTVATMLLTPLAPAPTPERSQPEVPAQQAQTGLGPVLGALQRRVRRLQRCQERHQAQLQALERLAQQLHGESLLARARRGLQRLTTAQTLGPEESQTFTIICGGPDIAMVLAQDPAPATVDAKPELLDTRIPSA

Variants of: B1
Details: with cdc7_human CDC7, O00311
For I526V, the “effect of a mutation on the interaction” value was “with no effect”.
For L306I, the “effect of a mutation on the interaction” value was “with no effect”.
For K579E, the “effect of a mutation on the interaction” value was “with no effect”.

Variants of: B2
Details: with ptms_human PTMS
In the case of R223C, the “effect of a mutation on the interaction” value is reported as “disrupting interaction strength”.

Variants of: B3
Details: with creb3_human CREB3, O43889
With S214G the “effect of a mutation on the interaction” value was “with no effect”.

Variants of: B4
Details: with stmn2_human STMN2, Q93045
For S514R, the “effect of a mutation on the interaction” value was “with no effect”.
In the case of P541S, the “effect of a mutation on the interaction” value is reported as “with no effect”.

Variants of: B5
Details: with krt38_human KRT38, O76015
A517G was tested, and the “effect of a mutation on the interaction” value was “with no effect”.

Variants of: B6
Details: with creb3_human CREB3, O43889
For A63V, the “effect of a mutation on the interaction” value was “with no effect”.

Variants of: B7
Details: with thap8_human THAP8, Q8NA92
With R8Q the “effect of a mutation on the interaction” value was “with no effect”.
In the case of S688L, the “effect of a mutation on the interaction” value is reported as “with no effect”.

From IntAct's records for PubMed 31515488
